Test results reported in patent publication US11091559B2, “Anti-ALK antibodies and methods for use thereof” (Celldex Therapeutics, Inc., priority 2015, dated 2021).
Where a chain is given by its changes, count along the chain named.

B1: Ab329: anti-ALK monoclonal antibody; VL SEQ ID NO: 413, VH SEQ ID NO: 414 (antibody, V domains shown)
VH: QVQLKESGPGLVKPSATLSLTCTVSGFSLTSYHVCWIRQTPGKGLEWMGVIWGDGRTTYNPPLKSRLSISRDTSKSQVFLKMSSLKTEDTATYYCARATMTGHGDAWGQGASVTVSS
VL: DIQMTQSPASLSASLEEIVTITCQASQDIDNYLSWYQQKPGKSPHLLIHSATSLADGVPSRFSGGRSGTQFSLKINRLQVEDTGIYYCLQHYSGWTFGGGTKLELKR
modifications: VH domain - Ab329; VL domain - Ab329
B2: Ab330: anti-ALK monoclonal antibody; VL SEQ ID NO: 415, VH SEQ ID NO: 416 (antibody, V domains shown)
VH: EVQVVETGGGVVQPGKSLEITCATSGLTFSTAWMYWVRQSSDRRLEWIARIKDKSNKFASDYVESVRGRFTISRDDSRSSVYLQMNNLKEEDTATYYCTTSYGYAWGQGVMVTVSS
VL: DIQMTQSPSSMSASLGDRVTITCQASQDIGNYLIWFQQKPGKSPRPLIYYATNLANGVPSRFSGSRSGSEYSLTITSLESEDMADYHCLQYKQHLTFGSGTKLEIER
modifications: VH domain - Ab330; VL domain - Ab330
B3: Ab331: anti-ALK monoclonal antibody; VL SEQ ID NO: 417, VH SEQ ID NO: 418 (antibody, V domains shown)
VH: B2 VH with K57N
VL: B2 VL with V19I
modifications: VH domain - Ab331; VL domain - Ab331
B4: Ab320: anti-ALK monoclonal antibody; VL SEQ ID NO: 395, VH SEQ ID NO: 396 (antibody, V domains shown)
VH: QVQLQQSGAELVKPGASVKISCKASGYAFSSYWMNWVKQRPGKGLEWIGQIYPGDGDTNYNGKFKGKATLTADKSSSTAYMQLSSLTSEDSAVYFCASYYYGSKAYWGQGTLVTVSA
VL: DIQMTQSPASLAASVGETVTITCRASENIYYSLAWYQQKQGKSPQLLIYNANSLEDGVPSRFSGSGSGTQYSMKINSMQPEDTATYFCKQAYDVPFTFGSGTKLEIKR
modifications: VH domain - Ab320; VL domain - Ab320
B5: Ab322: anti-ALK monoclonal antibody; VL SEQ ID NO: 399, VH SEQ ID NO: 400 (antibody, V domains shown)
VH: QVQLQQSGAELAKPGASVKLSCKASGYTFTNYWMHWVKQRPGQGLEWIGYINPSSGYTKYNQKFKDKATLTADKSSSTAYMQLSSLTYEDSAVYYCARDYYGSSSWFAYWGQGTLVTVSA
VL: DIVMTQSQRFMSTSVGDRVSVTCKASQNVGTNVAWYQQKPGQSPKALIYSASYRYSGVPDRFTGSGSGTDFTLTVSNVQSEDLAEYFCQQYNSYPYMYTFGGGTKLEIKR
modifications: VH domain - Ab322; VL domain - Ab322
B6: Ab328: anti-ALK monoclonal antibody; VL SEQ ID NO: 411, VH SEQ ID NO: 412 (antibody, V domains shown)
VH: B5 VH with N31S, Y88F
VL: B5 VL with R9K, Q42H, V75I, Q90R, Y98F
modifications: VH domain - Ab328; VL domain - Ab328
B7: Ab332: anti-ALK monoclonal antibody; VL SEQ ID NO: 419, VH SEQ ID NO: 420 (antibody, V domains shown)
VH: EVQLQQSGPELVKPGTSVKISCKASGYTFTDYYMNWMKQSHGKSLEWIGDINPNNGVTSYNQKFKGKATLTVDKSSSTAYMELRSLTSEDSAVYYCAREDYGSNYFDYWGQGTTLTVSS
VL: DIVLTQSPASLAVSLGQRATISCKASQSVDYDGDSYMNWYQQKPGQPPKLLIYAASNLESGIPARLSGSGSGTDFTLNIHPVEEEDAATYYCQQSNEDPPTFGGGTKLEIRR
modifications: VH domain - Ab332; VL domain - Ab332
B8: Ab325: anti-ALK monoclonal antibody; VL SEQ ID NO: 405, VH SEQ ID NO: 406 (antibody, V domains shown)
VH: QVQLQQSGAELVKPGASVKISCKASGYAFSSYWMNWVKQRPGKGLEWIGQIYPGDGDTNYNGKFKGKATLTADKSSSTAYMQLSSLTSEDSAVYFCARWYYGSYYAMDYWGQGTSVTVSS
VL: DIQMTQTTSSLSASLGDRVTISCRASQDISNYLNWYQQKPDGTVKLLIYYTSRLHSGVPSRFSGSGSGTDYSLTISNLEQEDIATYFCQQGNTLPRTFGGGTKLEIKR
modifications: VH domain - Ab325; VL domain - Ab325
B9: Ab352: humanized anti-ALK antibody; VL SEQ ID NO: 421, VH SEQ ID NO: 430 (antibody, V domains shown)
VH: EVQLVQSGPEVKKPGTSVKLSCKASGYTFTSYWMHWVRQARGQRLEWIGYIKPSSGYTKYNQKFKDRATLTADKSTSTAYMELSSLRSEDTAVYYCARDYYGSSSWFAYWGQGTLVTVSS
VL: EIVMTQSPAFLSVTPGEKVTITCKASQNVGTNVAWYQQKPDQAPKALIYSASYRYSGVPSRFSGSGSGTDFTLTISSLEAEDAATYYCQQYNSYPYMYTFGQGTKLEIK
modifications: VH domain - Ab352; VL domain - Ab351
B10: Ab355: humanized anti-ALK antibody; VL SEQ ID NO: 421, VH SEQ ID NO: 433 (antibody, V domains shown)
VH: B9 VH with E1Q, P9A, K12A, T16A, R38K, R41P, R44G, R67K, S84R, E89D
VL: B9 VL
modifications: VH domain - Ab355; VL domain - Ab351
B11: Ab437: humanized anti-ALK antibody; VL SEQ ID NO: 428, VH SEQ ID NO: 431 (antibody, V domains shown)
VH: B9 VH with P9A, Y32S, W33A, H35Q, R38K, R41P, R44G, R67K
VL: EIVMTQSQATMSTSVGERATLSCKASQNVGTNVAWYQQKPGQSPKALIYGASTRATGVPARFSGSGSGTDFTLTISSVEPEDFAVYYCQQYNSYPYMYTFGQGTKLEIK
modifications: VH domain - Ab353; VL domain - Ab435

Test system: ALK (basal phosphorylation in NB1 cells)
Assay: Western blot of ALK phosphorylation in NB1 cells
Format: cell-based, human
Conditions: effect in words
Protocol: Lysed cells were subjected to SDS-PAGE, transferred to nitrocellulose and immunoblotted with antibodies against total, and phospho-specific ALK, AKT, and MAPK. FIG. 4B depicts an ELISA of NB1 cells grown in media with reduced serum and treated with 30-100 nM of each antibody for 1-2 hours. Cell lysates were incubated on ELISA plates with an anti-ALK antibody, followed by incubation with a pan phosphotyrosine antibody coupled to HRP.
Cell lysates were subjected to SDS-PAGE and transferred to nitrocellulose. Immunoblotting was performed with antibodies against total, and phospho-specific ALK, AKT, and MAPK (purchased from Cell Signaling and utilized per manufacturer's instructions). HRP (horse radish peroxidase)-conjugated secondary antibodies (Thermo Scientific, Waltham, Mass.) were used along with Supersignal West Pico Chemiluminescent Substrate (Thermo Scientific, Waltham, Mass.) to image blots.
Anti-ALK monoclonal antibodies generated in Example 1 were evaluated via Western blotting for their ability to activate or inhibit basal levels of ALK phosphorylation in NB1 cells (FIG. 4A). A subset of ALK antibodies stimulated ALK tyrosine phosphorylation and a different subset of antibodies inhibited basal levels of ALK phosphorylation. See also Table 18, below. […] That is, ALK antibodies that stimulated ALK tyrosine phosphorylation increased MAPK and AKT phosphorylation, whereas ALK antibodies that inhibited ALK tyrosine phosphorylation decreased basal levels of MAPK and AKT phosphorylation (FIG. 4A). Similar results were obtained in ELISA-based ALK phosphorylation assays from lysates of NB1 cells treated with ALK antibodies (FIG. 4B).

Row | Molecule | ALK phosphorylation
1 | B1 | weak agonist
2 | B2 | inhibitor
3 | B3 | inhibitor
4 | B4 | no effect
5 | B5 | inhibitor
6 | B6 | weak agonist
7 | B7 | weak agonist

Target: murine ALK (purified mouse ALK antigen) (Mus musculus, UniProt P97793)
Assay: Mouse ALK cross-reactivity, solid-state ELISA
Format: binding
Parameters: key: − none; + weak; ++ moderate; +++ strong
Conditions: cross-reactivity with murine ALK
Protocol: Purified mAbs were evaluated for their ability to bind murine ALK by solid-state ELISA, or flow cytometry on Neuro-2a cells that express low levels of endogenous murine ALK. […]

Sequence of murine ALK (purified mouse ALK antigen) (P97793 19-1042 limits assumed): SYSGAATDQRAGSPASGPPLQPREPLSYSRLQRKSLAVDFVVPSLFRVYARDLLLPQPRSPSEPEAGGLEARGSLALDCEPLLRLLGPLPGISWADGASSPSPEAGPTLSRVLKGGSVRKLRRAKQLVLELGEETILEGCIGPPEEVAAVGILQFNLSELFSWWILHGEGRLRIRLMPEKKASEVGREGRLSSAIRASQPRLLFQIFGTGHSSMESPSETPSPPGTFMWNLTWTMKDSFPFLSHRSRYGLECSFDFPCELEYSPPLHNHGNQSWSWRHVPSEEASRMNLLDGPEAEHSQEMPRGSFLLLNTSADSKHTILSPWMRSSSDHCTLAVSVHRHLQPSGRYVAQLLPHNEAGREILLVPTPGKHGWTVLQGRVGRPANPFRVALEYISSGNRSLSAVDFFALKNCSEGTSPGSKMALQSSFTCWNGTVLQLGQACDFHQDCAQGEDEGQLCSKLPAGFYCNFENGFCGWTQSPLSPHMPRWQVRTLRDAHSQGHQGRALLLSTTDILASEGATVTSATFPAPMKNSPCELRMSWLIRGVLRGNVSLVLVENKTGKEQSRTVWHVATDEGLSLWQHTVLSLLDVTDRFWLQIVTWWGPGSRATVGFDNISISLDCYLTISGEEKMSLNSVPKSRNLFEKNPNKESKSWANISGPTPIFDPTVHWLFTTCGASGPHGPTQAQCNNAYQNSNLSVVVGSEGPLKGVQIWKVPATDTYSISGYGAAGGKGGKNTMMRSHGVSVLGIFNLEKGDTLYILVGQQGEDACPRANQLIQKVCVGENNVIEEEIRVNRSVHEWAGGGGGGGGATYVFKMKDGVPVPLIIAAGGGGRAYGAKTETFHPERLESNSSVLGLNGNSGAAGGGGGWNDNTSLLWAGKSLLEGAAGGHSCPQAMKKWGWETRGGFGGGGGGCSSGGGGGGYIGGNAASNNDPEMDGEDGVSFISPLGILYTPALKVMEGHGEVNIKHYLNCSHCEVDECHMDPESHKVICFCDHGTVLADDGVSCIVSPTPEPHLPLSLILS

Row | Molecule | mouse ALK binding
8 | B8 | +
9 | B1 | +++
10 | B2 | +
11 | B3 | −
12 | B4 | ++
13 | B5 | −
14 | B6 | +++
15 | B7 | +

Target: T1, cell surface mALK on Neuro2a cells (Mus musculus, UniProt P97793)
T1 construct: Neuro-2a cells that express low levels of endogenous murine ALK; endogenous in cells; host or cells: Neuro-2a (Neuro2a) mouse neuroblastoma cells
Assay: KD of humanized antibodies on Neuro2a (mouse) cells
Format: binding
Conditions: FACS, mean
Protocol: (§1) Amino acid residues that differ between rat ALK and mouse ALK are boxed. KD values for both NB1 (human) cells and Neuro2a (mouse) cells were also determined.

T1 sequence (P97793 19-1621): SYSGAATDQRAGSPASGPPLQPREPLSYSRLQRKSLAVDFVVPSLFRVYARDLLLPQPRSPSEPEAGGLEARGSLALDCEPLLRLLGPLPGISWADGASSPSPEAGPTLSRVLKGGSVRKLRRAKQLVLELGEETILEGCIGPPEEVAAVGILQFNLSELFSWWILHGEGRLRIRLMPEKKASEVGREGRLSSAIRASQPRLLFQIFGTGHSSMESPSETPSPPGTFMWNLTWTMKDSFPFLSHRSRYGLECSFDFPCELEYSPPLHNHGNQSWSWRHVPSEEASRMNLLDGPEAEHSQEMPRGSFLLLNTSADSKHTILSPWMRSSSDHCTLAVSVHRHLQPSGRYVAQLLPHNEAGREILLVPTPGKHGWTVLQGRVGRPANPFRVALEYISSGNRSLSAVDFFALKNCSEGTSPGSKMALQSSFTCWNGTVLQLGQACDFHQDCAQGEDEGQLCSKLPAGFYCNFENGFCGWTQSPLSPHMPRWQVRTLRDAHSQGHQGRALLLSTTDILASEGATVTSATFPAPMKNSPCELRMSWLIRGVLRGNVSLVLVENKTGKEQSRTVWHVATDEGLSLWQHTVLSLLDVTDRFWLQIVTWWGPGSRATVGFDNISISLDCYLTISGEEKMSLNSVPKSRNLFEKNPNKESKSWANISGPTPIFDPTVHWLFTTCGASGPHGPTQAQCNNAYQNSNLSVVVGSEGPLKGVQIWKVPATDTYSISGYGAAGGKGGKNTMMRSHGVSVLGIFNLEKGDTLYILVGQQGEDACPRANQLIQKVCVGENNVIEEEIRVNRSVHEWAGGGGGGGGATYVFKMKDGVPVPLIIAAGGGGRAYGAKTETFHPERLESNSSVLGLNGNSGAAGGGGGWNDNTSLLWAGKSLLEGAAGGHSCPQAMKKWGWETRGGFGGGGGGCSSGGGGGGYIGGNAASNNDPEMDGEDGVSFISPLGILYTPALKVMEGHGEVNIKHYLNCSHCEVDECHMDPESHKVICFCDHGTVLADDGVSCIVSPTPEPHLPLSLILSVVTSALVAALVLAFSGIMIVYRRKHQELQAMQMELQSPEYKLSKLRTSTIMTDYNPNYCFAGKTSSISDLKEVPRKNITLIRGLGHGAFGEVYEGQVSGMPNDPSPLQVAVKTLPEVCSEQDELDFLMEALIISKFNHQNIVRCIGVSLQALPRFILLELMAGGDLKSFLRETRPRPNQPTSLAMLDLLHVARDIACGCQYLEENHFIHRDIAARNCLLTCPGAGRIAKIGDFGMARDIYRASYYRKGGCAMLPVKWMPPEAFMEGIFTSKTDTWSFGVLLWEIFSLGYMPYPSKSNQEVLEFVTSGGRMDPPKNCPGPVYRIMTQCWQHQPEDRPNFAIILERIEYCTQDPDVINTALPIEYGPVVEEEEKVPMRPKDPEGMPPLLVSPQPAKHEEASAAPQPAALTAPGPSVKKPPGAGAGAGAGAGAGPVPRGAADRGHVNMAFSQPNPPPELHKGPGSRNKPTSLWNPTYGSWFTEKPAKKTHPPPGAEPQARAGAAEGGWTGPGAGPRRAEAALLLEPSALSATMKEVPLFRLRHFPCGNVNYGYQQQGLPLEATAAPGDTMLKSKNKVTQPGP

Row | Molecule | Kd
16 | B9 | 7.7 nM
17 | B10 | 5.1 nM

Test system: ALK (total protein levels in NB1 cells)
Assay: ALK turnover (total protein levels) by Western blot, 24 hour treatment of NB1 cells
Format: cell-based, human
Parameters: key: − none; + weak; ++ moderate; +++ strong
Conditions: not given
Description: FIG. 5 depicts a Western blot of a panel of ALK antibodies.
See also Table 18, below.

Row | Molecule | ALK turnover
18 | B8 | ++
19 | B4 | −
20 | B5 | −
21 | B6 | +++

Target: human ALK (hALK, purified ALK protein) (Homo sapiens, UniProt Q9UM73)
Assay: Monovalent affinity of humanized antibodies, BLitz System, human ALK
Format: binding
Conditions: BLitz, purified ALK protein at 70 μg/mL, single binding site fit; antibody by plate position of Table 19
Protocol: The humanized ALK antibodies designed in Example 1 were tested for monovalent affinity, wherein the kinetic data are fit to a single binding site equation to obtain relative affinity values.
Kinetic measurements of the monovalent affinity of the 96 humanized ALK antibody variants (Ab351-Ab446) were collected. Affinity ranking was performed using a BLitz® System (ForteBio, Menlo Park, Calif.). Humanized anti-ALK antibodies were immobilized at 0.5 mg/mL using Protein A tips. Once baseline stability was ensured, purified ALK proteins at 70 μg/mL were added. The resulting kinetic data were fit to a single binding site equation, from which the quoted monovalent KD values were derived.
as §1

Row | Molecule | Kd
22 | B11 | 6.08 mM

Target: C-terminal region of human ALK ECD (T637-S1038) (Homo sapiens, UniProt Q9UM73)
Assay: Competitive binding assay (epitope binning) by flow cytometry
Conditions: antibodies to the C-terminal region
Protocol: Antibodies that bind to the C-terminal region of human ALK ECD (T637-S1038) were further characterized using a competitive binding assay. A pairwise matrix approach was used whereby each antibody was fluorescently labeled and tested for its ability to bind to ALK-expressing cells pre-incubated with an unlabeled antibody. The ability of both antibodies to bind the C-terminal domain simultaneously was tested via flow cytometry. If both antibodies bound simultaneously, they were put into different bins and considered to belong to a separate epitope class.

Sequence of C-terminal region of human ALK ECD (T637-S1038) (Q9UM73 19-1620): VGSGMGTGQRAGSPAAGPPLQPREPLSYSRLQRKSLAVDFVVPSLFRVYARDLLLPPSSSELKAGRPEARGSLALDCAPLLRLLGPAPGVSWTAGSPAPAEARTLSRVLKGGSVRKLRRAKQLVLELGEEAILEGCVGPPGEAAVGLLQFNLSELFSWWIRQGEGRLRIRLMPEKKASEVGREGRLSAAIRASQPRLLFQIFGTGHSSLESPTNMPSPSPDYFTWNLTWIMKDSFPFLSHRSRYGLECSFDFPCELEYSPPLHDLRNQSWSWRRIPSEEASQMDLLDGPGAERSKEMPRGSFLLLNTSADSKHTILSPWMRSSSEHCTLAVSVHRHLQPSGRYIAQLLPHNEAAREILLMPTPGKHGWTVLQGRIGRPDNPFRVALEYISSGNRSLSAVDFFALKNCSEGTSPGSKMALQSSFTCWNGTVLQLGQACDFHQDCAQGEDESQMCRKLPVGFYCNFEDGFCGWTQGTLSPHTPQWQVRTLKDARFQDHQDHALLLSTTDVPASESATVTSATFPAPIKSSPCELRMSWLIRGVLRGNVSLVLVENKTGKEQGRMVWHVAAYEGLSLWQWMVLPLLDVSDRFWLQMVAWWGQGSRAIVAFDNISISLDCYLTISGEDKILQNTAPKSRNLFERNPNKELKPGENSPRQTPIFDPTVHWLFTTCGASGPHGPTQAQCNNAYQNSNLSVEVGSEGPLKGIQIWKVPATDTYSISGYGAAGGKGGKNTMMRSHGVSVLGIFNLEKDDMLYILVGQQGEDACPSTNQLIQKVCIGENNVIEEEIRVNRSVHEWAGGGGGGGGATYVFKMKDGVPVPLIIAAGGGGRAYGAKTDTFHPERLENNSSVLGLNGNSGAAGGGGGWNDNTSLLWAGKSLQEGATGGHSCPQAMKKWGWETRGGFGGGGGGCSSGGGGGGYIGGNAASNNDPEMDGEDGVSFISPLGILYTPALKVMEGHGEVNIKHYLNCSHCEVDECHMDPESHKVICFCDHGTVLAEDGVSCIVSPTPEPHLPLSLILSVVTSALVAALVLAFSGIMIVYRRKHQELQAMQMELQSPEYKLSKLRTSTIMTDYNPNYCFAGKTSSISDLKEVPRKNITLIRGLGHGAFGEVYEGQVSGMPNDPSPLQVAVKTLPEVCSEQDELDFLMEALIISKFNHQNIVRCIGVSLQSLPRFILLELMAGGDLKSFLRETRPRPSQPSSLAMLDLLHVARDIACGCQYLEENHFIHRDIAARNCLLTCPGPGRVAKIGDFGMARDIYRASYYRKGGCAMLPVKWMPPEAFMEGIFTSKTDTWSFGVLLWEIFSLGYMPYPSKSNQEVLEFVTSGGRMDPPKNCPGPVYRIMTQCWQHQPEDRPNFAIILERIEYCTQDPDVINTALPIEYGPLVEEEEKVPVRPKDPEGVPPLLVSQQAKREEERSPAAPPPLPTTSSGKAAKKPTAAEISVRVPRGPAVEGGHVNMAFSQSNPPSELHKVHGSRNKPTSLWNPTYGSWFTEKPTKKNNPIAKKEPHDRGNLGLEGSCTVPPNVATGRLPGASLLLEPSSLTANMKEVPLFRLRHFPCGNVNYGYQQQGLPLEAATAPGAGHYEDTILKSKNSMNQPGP

Row | Molecule | Bin/Domain (bin)
23 | B8 | 1
24 | B4 | 1
25 | B5 | 2
26 | B6 | 2

Test system: ALK on the surface of NB1 cells
Assay: KD determination by flow cytometry on NB1 cells
Format: binding
Conditions: NB1 (human) cells, FACS, mean
Protocol: FIG. 3 depicts the apparent affinities (KD) of ALK antibodies for ALK expression on the surface of NB1 cells. KD was determined by flow cytometry. Titration of each antibody on NB1 cells for 2-4 hours at 4° C. was followed by incubation with a fluorescently-labeled secondary antibody. The normalized mean fluorescent intensity […] shown as “% Max binding” was plotted as a function of antibody concentration.
Flow cytometry was utilized to measure the affinity at steady state (KD) with which different ALK antibodies bind to ALK on the surface of NB1 cells (FIG. 3). Titration of each antibody on NB1 cells for 2-4 hours at 4° C. was followed by incubation with a fluorescently-labeled secondary antibody. The normalized mean fluorescent intensity (MFI) shown as “% Max binding” was plotted as a function of antibody concentration. The data were fit to a one site binding isotherm using GraphPad Prism, from which affinity values were derived.
as §1

Row | Molecule | Kd
27 | B9 | 1.4 nM
28 | B10 | 1.26 nM
